Test results reported in the domain aggregation screens of Martell et al. (2025).

assay: soluble fraction after stress (log2 fold change); higher = more stays soluble; pooled small domains, quantitative proteomics; details: stress: 75 degC
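Note: 20 min heating vs room temperature control held 20 min.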

| Sequence | soluble fraction (log2) |
| --- | --- |
| HMAGITLHAEEGRVRIRSQSEGLVKVLDAMGREQASWPLRSKGWWFFLTEGWAPGTYFVKTESGETQRFLV | 0.274 |
| HMAGNNTATKEIAELLIAKGADVNAMNLSPPGREIGGMTPLDMAILGNRNEIADLLRKHGGRTQKELKAE | 0.262 |
| HMAGPGAEVVDRLIAVLTGERPATAADQVLLSILKGLGIGGVVLPSERTGLGWSGLYQRVKEITDMN | -1.61 |
| HMAGPRRRLLDAAIDRAAERGLGDLSLRALAEELGTSHRMLSHHFGSKDGLWLAIVEEVERRQ | -1.08 |
| HMAGSTAASKHALALLNTARHSIRDGNLTSAAAEIKQALATSQEQIVITEARSLMTAMEARATTRRATVLQ | -0.41 |
| HMAGTAMRATTAVNVRSGAGTNYSRIGLLQAGEQIQALSSKNGWTQVSYKGRTGYVASAYLASL | -2.57 |
| HMAGTGKVNTGVANVRSGPGTNYEISGKIYADTEVSILETSNGWYKIKFGNLTGWMSGTVLDIK | -0.902 |
| HMAGTPAVVKWFNPTKGFGFVTPREAGSDALLHASVLAKQGKRWLQEGTVVEVVLEEGPKGLVVSEVLTIE | -0.457 |
| HMAGWMPGGTNPAEPGRFAVLMDVDDSDAYKHMFLRWNGHAWEFERTRVLVKMEPSWWMRLPDDPEKP | -3.16 |
| HMAHKRVDGTIVTPLTADTIVLRTGTHGEQPFEIRDTTRHKLESLQKGDMVILLIDTDNKVIDVAIPP | 0.373 |
| HMAHYYVRNGYYYYQRRIPLDLRKFYSGANIKASLKTKDPAIAALFVAKFDRQYDAEFAQRRLNPD | -0.533 |
| HMAIELIDLIKNPETAPFSKLKYLKWMPEAEVTGFFNNLFQLNVTARETGDWSTVDKFLEDEGDRIAAQVA | -0.0284 |
| HMAIEMSTITKRVTSTGEIRYRALLQIRREDVNYTESRTFSKKSLAEAWLKKREVELEANPELLHQ | -3.44 |
| HMAIGERIRFLRTLRRMTQKELGLAAGFPEKNASIRMAQYENGTRTPKAELTAVLAEILKVSPQALTV | -1.52 |
| HMAIKNKNEQLEAIIKFADLRGEFKTADIEELLSIKSSRARLLISELVKIGKLESIGSNRNRRYHIK | -0.974 |
| HMAIKTGAVTGHGVKVRKGPSTNEKAIHDVLYGSRLQILEEKNGFLKAKFEDGTTGWISKQFVTTTDKNLL | -0.0233 |
| HMAIKWTPEIEDEVSNKLKEKWSPEQISAWLKKNKSIMISHQRIYQFIVEDKMSGGNLYRNLRQ | -2.45 |
| HMAIPTTDSDKATDAQIKQIKLLGDIHPNLKLDAWLERNHVTWETLTREQAGNMMKAIKNKYGD | -0.105 |
| HMAISEAERARLQTKIKERNKMARWINTNLNPTSKIRNINPAETVRKLMTQDDADSLERSLDAFMEA | -0.0807 |
| HMAIVNVEVPSLVGKTEQEARNLLTEAGLKVNVVNDEDESKNDGVVLRQSKDAGTEVQEGTTITITVNKVS | 0.0932 |
| HMAKDDFMSFVKAVWPEFIEGAHHRVIAQKFNDLATGKITRLIVNMPPRHTKSEFASYLLPAW | 0.214 |
| HMAKDEYGLTSNQRAFADEYIRNKGNATQAYLFAYPHIKKENTAAVNASRLLRNAKVSKYIADRTKEIL | -0.103 |
| HMAKIDSRKALIDQLTTTFTRAQLEELITKNELSTDARFFLSQWNAKGWIRKTAKNVYEKLR | -0.969 |
| HMAKLTPDQQELRAIRIELQMSQPDFADAININVPRLSSYEYGRTAGVPTSIMEAARELKRSMSR | -0.848 |
| HMAKRDEIEAELPRFVATITQELAASRDVLSMIEHYKQNSGPVFSAELDVLTADMRSGSYEAALTRFEARF | 0.188 |
| HMAKRKYKSFKDVAEFAQKLGIKSSTEWWAYVRGHEIPSDIPKDPSTYYKKEWTTWGDFLGTGYVSSA | -0.513 |
| HMAKRTVPSVAEAIDNFRRQHRRMPSYAEMLPLLGVRSKSVVHFWINKLLENGLLEKDDKGYLTPGS | -0.134 |
| HMAKSPYDVLGLKEDAPFDEVKKRYRELVKKYHPDILMGRGESEEMIEKSTRKLQEINEAYETIKQRA | 0.119 |

| Sequence | soluble fraction (log2) |
| --- | --- |
| HMAKVDIPHEMVDQRIDEIVEEIKMNLESQNMSLDDYLKRMNQTEAQLRANYEATAAEQVRQGLV | 0.858 |
| HMALDSQEVGYNIEARGARPVVAQLGKAGQFSAVENSIRLGDDNWIALAPKLAGGGNAGFTAGIKSALS | -0.0514 |
| HMALIGSNLRHLRNERKLSQQELADLIRVGRTTIANIEANLANPGHKTLLEIVKVFDITIDELLHTDLTK | -1.79 |
| HMALKPKITIEELIRILNESKDLSDSETAKILNKDYTTAKYGKEFTSINVQGARYALDIATNTS | -0.145 |
| HMALLSNEDIMFNLEFNRDLAVASNDGVSRDEFLRNKYGISEEEYNMLRARYGDGLNAARIKEYVGQRD | -0.182 |
| HMALLSNTVDELHAGMRLDSYLFESGLYPSRSFAVKQIEAGKVFLNGDAVTKKTLVSNGDFIVYELEE | -0.854 |
| HMALMLGGLIVYLNTTAPRDDIDLIELSKDTKAMAAFGNKLASPDYNGKQFALDWHELSRDEIMSKYFS | -2.03 |
| HMALPDWLDPEAWAAWKRHRKAIRKPLTEDAVALSIRELAKLRDEGYGPTSVIENAILKGWQGLYPPK | -0.364 |
| HMALPGESVYVSILQSGSNRDQGVGYLDDGTMVVVDGAIKDIGKSIEVVINKSHQTVAGKMLFAKKVA | -0.667 |
| HMALPQPDDDRQDTKKRILDMAEDLLLTRGFNAFSYQHISSELGMKNAAIHYHYPKKNDLGVAVIQRYRRR | 0.128 |
| HMALQDKYAELLTAANTMGVTNLAVAEKDGTLHVSGTAKSTADYDSLWALYDKIDPNMASGDLMMNI | 0.36 |
| HMALQDKYKELTDAATAAGVTDLQVREQDNVLYIDGTAPSGAVKDQLWAIYDKIDPNFVSGDLVLNVNVD | 0.0863 |
| HMALTLDEARTQGRVGETFYGYLVALKTDAETEKLVNDINAERKASYQQLAKQNNVSVDDIAKLAGQKLV | 0.00592 |
| HMALWFDEWKKYQDTIASADLLPDKAERDALIAQAEDRFNYWMDIYPRSASLNHSFDDLYEEHRRKIE | -1.01 |
| HMAMDYEGFKKSVYALTSIDLNAYKERQMKRRIDTLIAKNKYNGYEDYTAAIKKDKALFEEFVNYLTIN | -2.05 |
| HMAMMTKQRLIQLIHIARNDLQMDEDTYRQMLQGLTGKASTKGMDTPQLNRVLESMKKKGFRIK | -1.69 |
| HMAMNLQETVLMQLRDLILRGTFEPGQRLSEQPLAERLKASRTPVRSALVTLEQEGLIEASETGKYLVRQ | -0.821 |
| HMAMTNEEREALISEIKQTVNNSIDLKKDISDTEIKEAITQAVFERSEKSYLSIAEKQDIITAVFNSMR | 0.378 |
| HMANADVVLVDLDKEYTVDAAKFHSVVKHSPFNGFAVKGAPVLTIVRGTVVAENGEVVGQPGHSKMVRP | 0.108 |
| HMANEGWDIYKLDIRNHKQPNGEYYSEKEIQSTINNTFGKGSFNVDWKKYEKDKEYREKTNYYYFQAKYFV | -0.903 |
| HMANHIAAIHVLKSKLQMSDSDYRVLITGLTQKASTKDMSDIERQRVRDHMQGLAERMGVVK | -0.66 |
| HMANIAVTIPTGSSGDRIADILLQAGLIKDKQDFNQAVIAAGAEGKLRAGYFVIPSNATPAEIISILT | -0.521 |
| HMANILKHKNKDGVITSYTIRVYHGYDEAGKRLRPYTMNYKPAPNMTARQIEKELNRQAVQFEEQIKNGYA | -0.892 |
| HMANKLTSTNLAKQHKMGLSEMYAELMNSGYLIEKDGKYELTPLGISIGGESKPNRYKKGEFYFLWPSDIS | -0.618 |
| HMANLLNLREIPVANIRPELTMFLIPGENITQAFQTIRDQVVFTNKRLIVANVQGLTGKKVSYTSYPY | -0.38 |
| HMANPFQELTERELDVLRQVAAGKNNREIAEALFIGEKTVKTHISNILSKLHLADRTQAAVYAWQQGMM | -0.223 |
| HMANTVVMPNLLGKTMTEAKIELKELGIDITLKGSESSSKYSAGQIMEQNIAEGTKVEVGSSVEVTIAGS | -0.579 |
